Patent US20190276541A1 (Seagen, published 2019)

Molecular target: T1, CD3 on human T cells (human, UniProt P07766 23-207)
T1 construct: whole, on cells; The native CD3 complex on primary T cells, which were gated with anti-CD2-FITC; also called T cell receptor CD3; CD3 complex
Assay: flow cytometry on human T cells in PBMCs, anti-Fc Alexa 647 secondary
Method: T cells are used to assess binding of antibodies to CD3. For T cell binding assay, PBMCs are isolated from 100 ml of human blood sample using the protocol described previously. […] 50 μl of cells are added to each well of an assay plate. […] Equal volumes of PBMCs and bispecific antibody dilutions are mixed to produce a binding curve. Anti-CD2-FITC (BD Biosciences, San Jose, Calif.) is added to each well to selectively stain T cells. The plate is incubated for 1 hour at 4° C. Cells are washed and pelleted three times with FACS buffer consisting of PBS, 5% FBS and 0.05% sodium azide. […] Cells are washed and pelleted three times again with FACS buffer. Cells are then resuspended in 200 μL FACS buffer and analyzed on a BD ACCURI™ C6 flow cytometer (BD Biosciences, San Jose, Calif.).

T1 sequence (P07766 23-207): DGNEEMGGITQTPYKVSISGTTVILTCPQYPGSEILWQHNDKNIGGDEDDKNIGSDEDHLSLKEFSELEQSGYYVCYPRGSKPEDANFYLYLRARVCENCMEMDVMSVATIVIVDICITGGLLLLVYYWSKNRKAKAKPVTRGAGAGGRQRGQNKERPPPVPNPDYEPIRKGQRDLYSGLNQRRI

B1: 2G12-2B2 having VL0 and VH3 variable domains (antibody, V domains shown)
VH: EVQLVQSGAEVKKPGASVKVSCKASGYTFTDHAIHWVRQAPGQGLEWMGYFSPGNDDIKYNEKFRGRVTMTADKSSSTAYMELRSLRSDDTAVYFCKRSLSTPYWGQGTLVTVSS
VL: DIVMTQSPDSLAVSLGERATINCKSSQSLLNRGNHKNYLTWYQQKPGQPPKLLIYWASTRESGVPDRFSGSGSGTDFTLTISSLQAEDVAVYYCQNDYTYPYTFGQGTKVEIK
notes: also called 2G12-2B2 control; 2G12-2B2 comprising VL0 and VH3
  binding result: no binding (tested: 0 to 10 µg per 500,000 cells)
